These results are taken from paper PMC10580936.

The test system of data set [1] is T1, His-FepR wt (Listeria monocytogenes EGD-e), ORF:2866136e.
T1 sequence: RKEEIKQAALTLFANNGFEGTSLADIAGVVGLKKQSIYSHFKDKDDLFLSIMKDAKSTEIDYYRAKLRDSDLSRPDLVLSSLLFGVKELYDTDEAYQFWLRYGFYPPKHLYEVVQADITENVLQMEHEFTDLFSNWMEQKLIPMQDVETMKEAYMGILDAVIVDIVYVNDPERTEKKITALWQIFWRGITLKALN
Kind of data set: EMSA. To be noted: […] (25 mM Tris, pH 5.5), 0.15 mM BSA, 2.5 mM EDTA, 10% glycerol, 20 mM DTT, 5 min at 25 C. Background: A gel shift assay detects complexes by their altered migration in electrophoresis.

The subject of data set [2] is T2, His-FepR L24F L23F (Listeria monocytogenes EGD-e), ORF:2866136e.
T2 sequence: T1 sequence with L23F
The data set can be described thus: EMSA. The note with it: […] (25 mM Tris, pH 5.5), 0.15 mM BSA, 2.5 mM EDTA, 10% glycerol, 20 mM DTT, 5 min at 25 C.

Substitutions are numbered along the chain they refer to.

In the case of “CATTCCACTCCTCTCACAAAAACTGACGAACGTTCGTAAGTCATTTTCTCATGAAAAAAATTCTTTGTCAACAAAAAAATCCACTCTTTTAAAAGAGTGGATTCATGGATTTATTTTTCTTCTAAAAATTCGCTAATCAATTCGTATGTC (double strand) [PfepR G-27T]”, in data set [1], the binding entry is on record as “no binding”.

Regarding “CATTCCACTCCTCTCACAAAAACTGACGACCGTTCGTAAGTCATTTTCTCATGAAAAAAATTCTTTGTCAACAAAAAAATCCACTCTTTTAAAAGAGTGGATTCATGGATTTATTTTTCTTCTAAAAATTCGCTAATCAATTCGTATGTC (double strand) [PfepR wt]”, the binding entry is on record as “no binding” in data set [2] and “binds” in data set [1].
